Experimental data as given in patent publication US20120165503A1 (Merck Sharp & Dohme, published 2012).
*1 amine or outer side, *2 acyl side, *3 side chain or, on linkers, in order; H or OH if unused. Where no end group is shown, it is not given here. Side-chain parts run from the residue outwards. [ ]: non-standard residue; d: D form. The star is where a group is joined. γGlu = O=C(O)[C@H](CCC(=O)[*:2])N[*:1]; Stearoyl = CCCCCCCCCCCCCCCCCC(=O)*; Palmitoyl = CCCCCCCCCCCCCCCC(=O)*; Aib = CC(C)(N)C(=O)O

Legend:
Experiment in all cases: cell-based or functional assay
human GLP-1 receptor [1] = molecular target: T1, human GLP-1 receptor (human, UniProt P43220 24-463)
human glucagon receptor [2] = molecular target: T2, human glucagon receptor (human, UniProt P47871 26-477)
human GLP-1 receptor [3] = molecular target: T1, human GLP-1 receptor; remark: listed apart in the source
human glucagon receptor [4] = molecular target: T2, human glucagon receptor; remark: listed apart in the source

T2 sequence (P47871 26-477): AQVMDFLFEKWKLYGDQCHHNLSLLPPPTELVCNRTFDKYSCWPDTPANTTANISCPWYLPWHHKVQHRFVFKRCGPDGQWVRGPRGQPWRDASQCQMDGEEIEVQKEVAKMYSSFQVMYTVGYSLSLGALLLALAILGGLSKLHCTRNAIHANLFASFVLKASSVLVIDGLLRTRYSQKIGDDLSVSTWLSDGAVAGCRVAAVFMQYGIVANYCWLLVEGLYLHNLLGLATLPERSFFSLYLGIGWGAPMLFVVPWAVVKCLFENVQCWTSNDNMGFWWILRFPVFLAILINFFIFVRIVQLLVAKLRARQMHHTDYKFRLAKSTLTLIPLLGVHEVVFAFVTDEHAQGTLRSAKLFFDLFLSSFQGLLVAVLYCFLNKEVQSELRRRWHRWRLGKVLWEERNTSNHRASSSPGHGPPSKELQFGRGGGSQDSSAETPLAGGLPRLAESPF

| Binder | hGLP-1R EC50 (human GLP-1 receptor [1]) | hGCGR EC50 (human glucagon receptor [2]) | hGLP-1R + 20% Plasma EC50 (human GLP-1 receptor [3]) | hGCGR + 20% plasma EC50 (human glucagon receptor [4]) |
| --- | --- | --- | --- | --- |
| H[dS]QGTFTSDK([γGlu-γGlu-Stearoyl])SKYLD[Aib]RRAQDFVQWLMNTK[γGlu]-NH2 (N-terminus assumed; SMILES CCCCCCCCCCCCCCCCCC(=O)N[C@@H](CCC(=O)N[C@@H](CCC(=O)NCCCC[C@H](NC(=O)[C@H](CC(=O)O)NC(=O)[C@H](CO)NC(=O)[C@@H](NC(=O)[C@H](Cc1ccccc1)NC(=O)[C@@H](NC(=O)CNC(=O)[C@H](CCC(N)=O)NC(=O)[C@@H](CO)NC(=O)[C@@H](N)Cc1c[nH]cn1)[C@@H](C)O)[C@@H](C)O)C(=O)N[C@@H](CO)C(=O)N[C@@H](CCCCN)C(=O)N[C@@H](Cc1ccc(O)cc1)C(=O)N[C@@H](CC(C)C)C(=O)N[C@@H](CC(=O)O)C(=O)NC(C)(C)C(=O)N[C@@H](CCCNC(=N)N)C(=O)N[C@@H](CCCNC(=N)N)C(=O)N[C@@H](C)C(=O)N[C@@H](CCC(N)=O)C(=O)N[C@@H](CC(=O)O)C(=O)N[C@@H](Cc1ccccc1)C(=O)N[C@H](C(=O)N[C@@H](CCC(N)=O)C(=O)N[C@@H](Cc1c[nH]c2ccccc12)C(=O)N[C@@H](CC(C)C)C(=O)N[C@@H](CCSC)C(=O)N[C@@H](CC(N)=O)C(=O)N[C@H](C(=O)N[C@@H](CCCCN)C(=O)N[C@@H](CCC(N)=O)C(=O)O)[C@@H](C)O)C(C)C)C(=O)O)C(=O)O) [MM132] | 0.024 nM | 0.004 nM |  |  |
| H[dS]QGTFTSDK([γGlu-Palmitoyl])SKYLDERRAQDFVQWLMNTK[γGlu]-NH2 (N-terminus assumed; SMILES CCCCCCCCCCCCCCCC(=O)N[C@@H](CCC(=O)NCCCC[C@H](NC(=O)[C@H](CC(=O)O)NC(=O)[C@H](CO)NC(=O)[C@@H](NC(=O)[C@H](Cc1ccccc1)NC(=O)[C@@H](NC(=O)CNC(=O)[C@H](CCC(N)=O)NC(=O)[C@@H](CO)NC(=O)[C@@H](N)Cc1c[nH]cn1)[C@@H](C)O)[C@@H](C)O)C(=O)N[C@@H](CO)C(=O)N[C@@H](CCCCN)C(=O)N[C@@H](Cc1ccc(O)cc1)C(=O)N[C@@H](CC(C)C)C(=O)N[C@@H](CC(=O)O)C(=O)N[C@@H](CCC(=O)O)C(=O)N[C@@H](CCCNC(=N)N)C(=O)N[C@@H](CCCNC(=N)N)C(=O)N[C@@H](C)C(=O)N[C@@H](CCC(N)=O)C(=O)N[C@@H](CC(=O)O)C(=O)N[C@@H](Cc1ccccc1)C(=O)N[C@H](C(=O)N[C@@H](CCC(N)=O)C(=O)N[C@@H](Cc1c[nH]c2ccccc12)C(=O)N[C@@H](CC(C)C)C(=O)N[C@@H](CCSC)C(=O)N[C@@H](CC(N)=O)C(=O)N[C@H](C(=O)N[C@@H](CCCCN)C(=O)N[C@@H](CCC(N)=O)C(=O)O)[C@@H](C)O)C(C)C)C(=O)O) [OXM414] | 0.007 nM | 0.005 nM | 0.07 nM | 0.15 nM |
